Target: Human erythropoietin (Epoetin β) (human) (UniProt P01588)
Assay: SPR; EPO immobilised by amine coupling on a ProteOn GLH chip (up to 3 000 RU); S100 or CaM as analyte (0.25–4 μM); 25 °C; 10 mM HEPES, 150 mM NaCl, 0.05% TWEEN 20, pH 7.4, 1 mM CaCl2; heterogeneous ligand model, values averaged over analyte concentrations (n = 5)

B1: Human S100P protein (wild-type) (natural protein)
chain: MTELETAMGMIIDVFSRYSGSEGSTQTLTKGELKVLMEKELPGFLQSGKDKDAVDKLLKDLDANGDAQVDFSEFIVFVAAITSACHKYFEKAGL
**Q.** B1 was tested. Which Kd1 (heterogeneous ligand model, ligand population L1) did it give?
**A.** 540 nM

**Q.** And the Kd2 (heterogeneous ligand model, ligand population L2)?
**A.** 1.8 µM

**Q.** What about the ka1 (heterogeneous ligand model, ligand population L1) of the same binder?
**A.** 2000 M⁻¹ s⁻¹

**Q.** What about the ka2 (heterogeneous ligand model, ligand population L2) of the same binder?
**A.** 16000 M⁻¹ s⁻¹

**Q.** And the kd1 (heterogeneous ligand model, ligand population L1)?
**A.** 0.0011 s⁻¹

**Q.** And the kd2 (heterogeneous ligand model, ligand population L2)?
**A.** 0.028 s⁻¹

Reference: PMC8773746
